This is an account of results in patent US20130324704A1 (published 2013).

The target of experiment [1] is EGFL7 coated on plates in the Cell Adhesion Assay (mouse EGFL7 (mEGFL7-CB-His) or human EGFL7 (EGFL7-CB-His)); …. As to the kind of experiment: cell-based or functional assay.
For experiment [2], the target named is T1, Mouse EGFL7 (mEGFL7-CB-His) (mouse, UniProt Q9QXT5 22-275).
T1 construct: Limits of the construct and the CB(-His) tag are not described; also called murine EGFL7
T1 sequence: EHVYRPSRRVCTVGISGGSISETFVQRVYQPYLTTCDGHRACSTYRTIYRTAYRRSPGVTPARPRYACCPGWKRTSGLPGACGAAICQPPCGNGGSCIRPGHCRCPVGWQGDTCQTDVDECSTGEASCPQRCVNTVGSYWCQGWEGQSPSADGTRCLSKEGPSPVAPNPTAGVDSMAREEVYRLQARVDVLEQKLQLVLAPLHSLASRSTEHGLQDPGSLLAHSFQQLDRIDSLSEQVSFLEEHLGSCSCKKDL
In words: SPR (Biacore) at 37 C, IgG over immobilized mEGFL7-CB. On the technique in general: Surface plasmon resonance follows binding to a sensor surface in real time, without labels.

B1: 4F11.v6, IgG (antibody, V domains shown)
VH: EVQLVESGGGLVQPGGSLRLSCAASGHTFTTYGMSWVRQAPGKGLEWVGWINTHSGVPTYADDFKGRFTISRDNSKNTVYLQMNSLRAEDTAVYYCARLGSSAVDYWGQGTLVTVSS
VL: DIQMTQSPSSLSASVGDRVTITCKASQSVDYDGDSYMSWYQQKPGKAPKLLIYGASYLESGVPSRFSGSGSGTDFTLTISSLQPEDFATYYCQQNNEDPYTFGQGTKVEIK
Turning to B1, the “Cell Adhesion Assay Variant/ch4F11 (fold)” value in experiment [1] turned out to be 4.01 fold.

B2: 4F11.v10, IgG (antibody, V domains shown)
VH: EVQLVESGGGLVQPGGSLRLSCAASGHTFTTYGMSWVRQAPGKGLEWVGWINTHSGVPTYADDFKGRFTISRDNSKNTVYLQMNSLRAEDTAVYYCARLGSYAVDYWGQGTLVTVSS
VL: DIQMTQSPSSLSASVGDRVTITCKASQSVDYDGDSYMSWYQQKPGKAPKLLIYGASYLESGVPSRFSGSGSGTDFTLTISSLQPEDFATYYCQQNNEDPYTFGQGTKVEIK
Take B2: the “Cell Adhesion Assay Variant/ch4F11 (fold)” value in experiment [1] was 4.38 fold.

B3: hu18F7.v6J, IgG (antibody, V domains shown)
VH: EVQLVESGGGLVQPGGSLRLSCAASGYTFIDYYMNWVRQAPGKGLEWVGDINLDNSGTHYNQKFKGRFTISRDKSKNTAYLQMNSLRAEDTAVYYCAREGVYHDYDDYAMDYWGQGTLVTVSS
VL: DIQMTQSPSSLSASVGDRVTITCRTSQSLVHINSITYLHWYQQKPGKAPKLLIYRVSNRFSGVPSRFSGSGSGTDFTLTISSLQPEDFATYYCGQSTHVPLTFGQGTKVEIK
notes: Variant of 18F7.v6; Expressed as IgG
In general, Kd refers to the concentration at which binding is half-saturated. In the case of B3, in experiment [2], the Kd amounted to 6.8 nM.
